Results on 2 molecules are retold here after publication doi:10.1101/2025.11.07.687251, “Reconstitution of multistep recruitment of ULK1 to membranes in autophagy” (bioRxiv, 2025).

Experiment [1] deals with T1, MBP-mCherry-ULK1(291–828) (human, UniProt O75385 291-828).
T1 construct: ULK1, human, intrinsically disordered region, residues 291-828 (no kinase domain, no EAT domain); also called mCherry-ULK1 ^ΔKDΔEAT (291–828); ULK1 IDR; source: purified (amylose resin); not shown: mCherry, N-terminal, kept
T1 sequence (looked up): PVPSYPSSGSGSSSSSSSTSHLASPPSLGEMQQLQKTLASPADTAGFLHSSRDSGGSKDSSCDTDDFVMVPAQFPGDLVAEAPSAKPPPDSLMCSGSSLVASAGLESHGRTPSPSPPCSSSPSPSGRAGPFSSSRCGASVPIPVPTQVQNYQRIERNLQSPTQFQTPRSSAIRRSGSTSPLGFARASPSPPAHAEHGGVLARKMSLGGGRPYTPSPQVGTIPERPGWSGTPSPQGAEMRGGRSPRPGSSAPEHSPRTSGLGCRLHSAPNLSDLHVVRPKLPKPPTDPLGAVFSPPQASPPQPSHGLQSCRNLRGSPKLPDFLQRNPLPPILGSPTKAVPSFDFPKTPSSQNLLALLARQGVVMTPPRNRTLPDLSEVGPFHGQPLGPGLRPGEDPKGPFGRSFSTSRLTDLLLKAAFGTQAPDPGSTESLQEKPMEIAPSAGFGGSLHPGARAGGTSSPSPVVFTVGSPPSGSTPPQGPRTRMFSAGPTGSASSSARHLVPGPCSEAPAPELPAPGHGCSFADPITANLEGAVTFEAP
The experiment can be described thus: pull-down; microscopy-based bead assay (Fig. S3): GST-ATG13(6–196)/ATG101 as bait on GSH beads; MBP-mCherry-ULK1 fragments added separately; mCherry on the beads imaged. Particulars: both partners purified.

For experiment [2], the target named is T2, mcherry-ATG13(1–230)/TSF-ATG101 (human, UniProt O75143 1-230; Q9BSB4 1-218).
T2 construct: ATG13, human; ATG101, human, wild type; TSF-tagged proteins in general were purified on Strep-Tactin Sepharose; also called mCherry-ATG13^HD:TSF-ATG101; mCherry-ATG13^HD:ATG101; not shown: mCherry, N-terminal, kept
T2 sequence (looked up) 1: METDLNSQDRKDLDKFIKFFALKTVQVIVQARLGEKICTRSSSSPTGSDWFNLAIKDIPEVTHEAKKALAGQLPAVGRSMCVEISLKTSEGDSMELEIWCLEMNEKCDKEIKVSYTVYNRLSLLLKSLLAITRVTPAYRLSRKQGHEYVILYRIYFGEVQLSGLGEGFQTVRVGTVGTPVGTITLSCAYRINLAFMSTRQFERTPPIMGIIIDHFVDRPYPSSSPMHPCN
T2 sequence (looked up) 2: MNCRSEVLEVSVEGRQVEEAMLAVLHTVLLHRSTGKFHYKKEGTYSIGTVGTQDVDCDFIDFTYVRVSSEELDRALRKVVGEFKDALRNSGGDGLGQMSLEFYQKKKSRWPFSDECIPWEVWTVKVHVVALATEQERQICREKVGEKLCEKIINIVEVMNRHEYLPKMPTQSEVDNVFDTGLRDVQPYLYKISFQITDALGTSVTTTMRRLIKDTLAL
Nature of the experiment: pull-down; microscopy-based bead assay (Fig. 5e): GST-GFP-ULK1(415–464) (WT or ADA) as bait on GSH beads; mcherry-ATG13(1–230)/TSF-ATG101 as prey; mCherry channel quantified. Particulars: both partners purified.

B1: GST-ATG13(6–196)/ATG101 (complex, human)
chain 1: NSQDRKDLDKFIKFFALKTVQVIVQARLGEKICTRSSSSPTGSDWFNLAIKDIPEVTHEAKKALAGQLPAVGRSMCVEISLKTSEGDSMELEIWCLEMNEKCDKEIKVSYTVYNRLSLLLKSLLAITRVTPAYRLSRKQGHEYVILYRIYFGEVQLSGLGEGFQTVRVGTVGTPVGTITLSCAYRINLAFM
chain 2: MNCRSEVLEVSVEGRQVEEAMLAVLHTVLLHRSTGKFHYKKEGTYSIGTVGTQDVDCDFIDFTYVRVSSEELDRALRKVVGEFKDALRNSGGDGLGQMSLEFYQKKKSRWPFSDECIPWEVWTVKVHVVALATEQERQICREKVGEKLCEKIINIVEVMNRHEYLPKMPTQSEVDNVFDTGLRDVQPYLYKISFQITDALGTSVTTTMRRLIKDTLAL
notes: ATG101, human, wild type; no tag is named; also called GST-ATG13^HD:ATG101; ATG13^HD:ATG101; source: HEK293T-GNTI- cells, transfected (PEI), purified (GSH resin, S200 SEC); not shown: GST, N-terminal, kept
Regarding B1, in experiment [1], the binding result is “binds”.

B2: GST-GFP-ULK1(415–464) (domain or fragment, human, UniProt O75385 415-464, looked up)
chain: SGRAGPFSSSRCGASVPIPVPTQVQNYQRIERNLQSPTQFQTPRSSAIRR
notes: ULK1, human, IDR fragment with the PVP motif, residues 415-464; GST-tagged proteins in general were purified on GSH resin; also called GST-tagged fragment of the ULK1 IDR encompassing residues 415–464; not shown: GST, N-terminal, kept; GFP, N-terminal, kept
With B2, in experiment [2], the binding result was “binds”.
